Laboratory results taken from paper PMC10397247.
Where two headings read alike, the source gives them in different places. Each block holds one binder with its values, some of them ahead of it.

Assays:
Experiment in all cases: two-hybrid library CCmax;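 further: natural log of median RNA to DNA barcode read ratio; higher means stronger binding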
[1] = molecular target: T1, 4H717-AA; conditions: mean of both orientations
T1 chain: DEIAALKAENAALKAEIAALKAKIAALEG

[2] = molecular target: T2, 4H454-AA
T2 chain: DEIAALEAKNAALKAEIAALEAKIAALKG

[3] = molecular target: T3, 4H993-AA; conditions: mean of both orientations
T3 chain: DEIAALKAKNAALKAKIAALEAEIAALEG

[4] = molecular target: T4, 4H48-AA; conditions: mean of both orientations
T4 chain: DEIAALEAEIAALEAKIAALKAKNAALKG

[5] = molecular target: T5, 4H780-AA; conditions: mean of both orientations
T5 chain: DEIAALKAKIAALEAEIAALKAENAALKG

[6] = molecular target: T6, N5-AA; conditions: mean of both orientations
T6 chain: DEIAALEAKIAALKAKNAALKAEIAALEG

[7] = molecular target: T7, 4H794-AA; conditions: mean of both orientations
T7 chain: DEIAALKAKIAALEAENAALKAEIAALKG

[8] = molecular target: T8, 4H906-AA; conditions: mean of both orientations
T8 chain: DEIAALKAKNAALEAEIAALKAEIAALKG

[9] = molecular target: T9, 4H566-AA; conditions: mean of both orientations
T9 chain: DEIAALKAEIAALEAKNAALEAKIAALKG

[10] = molecular target: T10, 4H881-AA; conditions: mean of both orientations
T10 chain: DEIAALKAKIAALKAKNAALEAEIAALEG

[11] = molecular target: T11, 4H605-AA; conditions: mean of both orientations
T11 chain: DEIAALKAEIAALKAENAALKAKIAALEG

[12] = molecular target: T12, 4H678-AA; conditions: mean of both orientations
T12 chain: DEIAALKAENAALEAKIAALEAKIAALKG

[13] = molecular target: T13, N6-AA; conditions: mean of both orientations
T13 chain: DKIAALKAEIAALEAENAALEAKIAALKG

[14] = molecular target: T14, 4H2277-AA; conditions: mean of both orientations
T14 chain: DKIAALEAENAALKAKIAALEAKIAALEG

[15] = molecular target: T15, 4H2642-AA; conditions: mean of both orientations
T15 chain: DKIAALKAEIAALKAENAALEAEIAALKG

[16] = molecular target: T16, 4H2575-AA; conditions: mean of both orientations
T16 chain: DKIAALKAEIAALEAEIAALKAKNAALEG

[17] = molecular target: T17, 4H2949-AA; conditions: mean of both orientations
T17 chain: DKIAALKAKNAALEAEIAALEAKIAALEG

[18] = molecular target: T18, 4H3112-AA; conditions: mean of both orientations
T18 chain: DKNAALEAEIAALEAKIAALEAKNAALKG

[19] = molecular target: T19, 4H1352-AA; conditions: mean of both orientations
T19 chain: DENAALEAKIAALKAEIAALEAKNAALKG

[20] = molecular target: T20, 4H335-AA; conditions: mean of both orientations
T20 chain: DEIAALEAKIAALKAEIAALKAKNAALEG

[21] = molecular target: T21, 4H1867-AA; conditions: mean of both orientations
T21 chain: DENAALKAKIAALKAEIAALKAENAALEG

[22] = molecular target: T22, 4H2837-AA; conditions: mean of both orientations
T22 chain: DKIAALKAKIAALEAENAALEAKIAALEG

[23] = molecular target: T23, 4H1552-AA; conditions: mean of both orientations
T23 chain: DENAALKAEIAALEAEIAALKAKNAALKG

[24] = molecular target: T24, 4H2466-AA
T24 chain: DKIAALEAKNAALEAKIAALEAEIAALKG

[25] = molecular target: T25, 4H1324-AA
T25 chain: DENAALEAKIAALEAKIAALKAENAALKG

[26] = molecular target: T26, 4H2754-AA; conditions: mean of both orientations
T26 chain: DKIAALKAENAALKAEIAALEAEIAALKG

[27] = molecular target: T27, 4H2078-AA; conditions: mean of both orientations
T27 chain: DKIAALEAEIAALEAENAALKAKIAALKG

[28] = molecular target: T28, 4H234-AA; conditions: mean of both orientations
T28 chain: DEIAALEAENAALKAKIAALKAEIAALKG

[29] = molecular target: T29, 4H3844-AA; conditions: mean of both orientations
T29 chain: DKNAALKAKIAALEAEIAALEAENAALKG

[30] = molecular target: T30, 4H2165-AA; conditions: mean of both orientations
T30 chain: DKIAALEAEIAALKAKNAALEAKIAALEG

[31] = molecular target: T31, 4H3343-AA; conditions: mean of both orientations
T31 chain: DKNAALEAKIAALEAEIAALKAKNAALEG

[32] = molecular target: T32, 4H3655-AA; conditions: mean of both orientations
T32 chain: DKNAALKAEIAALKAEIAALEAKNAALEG

[33] = molecular target: T33, 4H2505-AA; conditions: mean of both orientations
T33 chain: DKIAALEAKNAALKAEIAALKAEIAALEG

[34] = molecular target: T34, 4H1842-AA
T34 chain: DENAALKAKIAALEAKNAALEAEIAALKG

[35] = molecular target: T35, 4H2944-AA; conditions: mean of both orientations
T35 chain: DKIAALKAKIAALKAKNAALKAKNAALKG

[36] = molecular target: T36, 4H317-AA; conditions: mean of both orientations
T36 chain: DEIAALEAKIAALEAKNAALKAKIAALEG

[37] = molecular target: T37, 4H2883-AA
T37 chain: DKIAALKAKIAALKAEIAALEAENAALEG

[38] = molecular target: T38, 4H342-AA; conditions: mean of both orientations
T38 chain: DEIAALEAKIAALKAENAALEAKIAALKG

[39] = molecular target: T39, 4H2190-AA; conditions: mean of both orientations
T39 chain: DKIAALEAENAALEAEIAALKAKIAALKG

[40] = molecular target: T40, 4H1636-AA; conditions: mean of both orientations
T40 chain: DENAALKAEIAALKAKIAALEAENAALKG

[41] = molecular target: T41, 4H1401-AA; conditions: mean of both orientations
T41 chain: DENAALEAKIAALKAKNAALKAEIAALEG

[42] = molecular target: T42, 4H3921-AA; conditions: mean of both orientations
T42 chain: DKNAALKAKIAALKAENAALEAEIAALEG

[43] = molecular target: T43, 4H2729-AA; conditions: mean of both orientations
T43 chain: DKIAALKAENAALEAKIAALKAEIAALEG

[44] = molecular target: T44, 4H2393-AA; conditions: mean of both orientations
T44 chain: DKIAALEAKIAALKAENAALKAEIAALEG

[45] = molecular target: T45, 4H2354-AA; conditions: mean of both orientations
T45 chain: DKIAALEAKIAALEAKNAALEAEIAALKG

[46] = molecular target: T46, 4H2617-AA; conditions: mean of both orientations
T46 chain: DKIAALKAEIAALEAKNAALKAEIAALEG

[47] = molecular target: T47, 4H3427-AA; conditions: mean of both orientations
T47 chain: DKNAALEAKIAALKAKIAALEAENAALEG

[48] = molecular target: T48, 4H2151-AA; conditions: mean of both orientations
T48 chain: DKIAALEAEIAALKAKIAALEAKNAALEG

[49] = molecular target: T49, 4H3627-AA; conditions: mean of both orientations
T49 chain: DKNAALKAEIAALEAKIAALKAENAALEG

[50] = molecular target: T50, 4H3606-AA; conditions: mean of both orientations
T50 chain: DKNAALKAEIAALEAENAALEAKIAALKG

[51] = molecular target: T51, 4H429-AA; conditions: mean of both orientations
T51 chain: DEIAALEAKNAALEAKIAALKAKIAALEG

interaction score [1]: 0.898
interaction score [2]: 1.45
interaction score [3]: 1.82
interaction score [4]: -0.839
interaction score [5]: -1.48
interaction score [6]: 0.301
interaction score [7]: -0.535
interaction score [8]: 0.951
interaction score [9]: 0.133
interaction score [10]: 0.451
interaction score [11]: -1.24
interaction score [12]: 2.11
interaction score [13]: 1.89
B1: 4H454-AA (peptide)
chain: DEIAALEAKNAALKAEIAALEAKIAALKG

interaction score [14]: -1.35
interaction score [15]: -0.934
interaction score [1]: -1.26
interaction score [16]: 0.676
interaction score ([2]; mean of both orientations): -0.814
interaction score [17]: -1.16
interaction score [18]: 0.0224
interaction score [19]: 0.674
interaction score [20]: -0.376
interaction score [21]: 0.462
interaction score [3]: 1.28
interaction score [4]: 1.07
interaction score [22]: -1.14
interaction score [5]: 0.567
interaction score [23]: 1.17
interaction score [24]: -1.2
interaction score [25]: 1.4
interaction score [26]: -1.3
interaction score [27]: 1.78
interaction score [28]: -2.21
interaction score [29]: 2.11
interaction score [30]: -1.47
interaction score [31]: 0.278
interaction score [32]: -0.51
interaction score [7]: -1.34
interaction score [33]: -1.2
interaction score [34]: -1.92
interaction score [35]: -1.01
interaction score [36]: -1.41
interaction score ([37]; mean of both orientations): 1.32
interaction score [38]: -1.05
interaction score [39]: -1.14
interaction score [40]: -0.551
interaction score [8]: -1.42
interaction score [9]: -1.31
interaction score [41]: -1.6
interaction score [42]: -1.15
interaction score [43]: -1.35
interaction score [44]: -0.744
interaction score [45]: -1.59
interaction score [46]: -0.287
interaction score [10]: -1.69
interaction score [47]: 0.0395
interaction score [48]: -0.928
interaction score [49]: 0.372
interaction score [11]: -1.44
interaction score [50]: -1.02
interaction score [12]: -1.52
interaction score [51]: -1.18
B2: 4H1324-AA (peptide)
chain: DENAALEAKIAALEAKIAALKAENAALKG

interaction score [1]: -1.74
interaction score ([2]; mean of both orientations): -0.344
interaction score [17]: 0.237
interaction score [18]: 1.39
interaction score [3]: -0.35
interaction score [4]: 2.1
interaction score [6]: 0.696
interaction score [29]: 0.741
interaction score [31]: -0.771
interaction score [32]: 0.159
interaction score [7]: -1.54
interaction score [35]: 0.034
interaction score [36]: -0.269
interaction score [37]: 1.92
interaction score [38]: -0.29
interaction score [8]: -1.52
interaction score [9]: 0.102
interaction score [10]: -0.297
interaction score [47]: -0.335
interaction score [49]: -0.102
interaction score [11]: -1.31
interaction score [50]: 0.716
interaction score [12]: 0.155
interaction score [13]: 1.03
interaction score [51]: -0.571
B3: 4H2883-AA (peptide)
chain: DKIAALKAKIAALKAEIAALEAENAALEG
